The results in this text go back to the nanobody polyreactivity screen of Harvey et al. (2022).

The nature of the data set: yeast display, Sf9 membrane polyspecificity reagent, FACS + sequencing; frameworks hold sequencing errors. An outline of the steps:
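A synthetic nanobody library was expressed on Saccharomyces cerevisiae BJ5465 by galactose induction for 36–48 hours. The library was stained for 1 hour at 4 °C with 10% biotinylated, detergent-solubilized Sf9 membrane reagent and enriched with streptavidin microbeads before FACS. Low and high (top ~1%) gates were set on anti-HA fluorescence for expression and streptavidin fluorescence for reagent binding, and each polyreactivity label reflects the gate of origin.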
Turning to “QVQLVESGGGLVQAGGSLRLSCAASGGTFQWNAMGWYRQAPGNERELVAAITSGGRTNYADSVKGRFTISRDNAKTTVSFQLNSLKPEDTAVYYCAATAWDRYIDYDYWGQGTQETVSS”, the “polyreactivity (PSR sort gate)” value is recorded as “high polyreactivity”.

For the sequence “QVQLVESGGGLVKAGGSLRLSCAASGRTFVYNAMGWYRQAPGKERELVADIDGGGDRTYYADSVKGRFTISRDNAKNKVFLQMNSLKPEDTAVYYCARDPGDTYYYSYPEGDYWGQGTQVTVSS”, the “polyreactivity (PSR sort gate)” value was “low polyreactivity”.

For the sequence “QVQLVESGGVFDQARGSLRLSCAASGSIFAIYAMGWYRQAPGKERELVAAISRSGGRTYYADSVKGRFTISRDNAKNTVYLQMNSLKPEDTAVYYCAAQGVSSGFRYRGGYWGQGTQVTVSS”, the “polyreactivity (PSR sort gate)” value is “high polyreactivity”.

Turning to “QVQLVESGGGLVQAGGSLRLSCAASGSIFVGYGAMGWYRQAPGKERELVAAITSGNSTYYADSVKGRFTISRDNAKNTVYLQMNSLKPEDTAVYYCAARGFLKYVTEFDYWGQGTQVTVSS”, the “polyreactivity (PSR sort gate)” value is reported as “low polyreactivity”.

Take “QVQLVESGGVLVQAGCSIRLSCSASGLTFIQYAMGWYRQAPGKERELVAAINSGASTRYADSVKGRFTISRDNAKNTVYLQMNSLKPEDTAVYYCNARLRRYTNRYYKYYYWGQGTQVNVSS”: the “polyreactivity (PSR sort gate)” value is “high polyreactivity”.

In the case of “QVQLVESGGGLVQAGGSLRLSCAASGSTFLSYAMGWYRQAPGKERELVAAISWSGGRTYYADSVKGRFTISRDNAKNTVYLQMNSLKPEDTAVYYCAARHVPFTKHEYEYWGQGTQVTVSS”, the “polyreactivity (PSR sort gate)” value is listed as “low polyreactivity”.

On to “QVQLVESGAGIVQAGGSHRLSCAASGFIFFGYAAMEWYRQAPGKERELVAAISWSGGSTYYADSVKGRFTISRDHAKYTVYLQMNSLKPEDTAVYYCNAVYLKLYPWLDYWGQVTQVTVSS”, for which the “polyreactivity (PSR sort gate)” value is “low polyreactivity”.

Consider “QVQLVESGGGLVQAGGSLRLSCAASGIIFNYYTMGWYRQAPGKERELVAVISWRGGSTFYADSVKGRFTISRDNAKNTVYLQMNSLKPEDTAVYYCAAVLFGDYPPVYYPTEYDYWGQGTQVTVSS”, for which the “polyreactivity (PSR sort gate)” value is given as “low polyreactivity”.

On to “QVQLVESGGGLVQAGGSLRLSCAASGFIFGQYAMGWSRQAPGKERELVAAISESGGRTYYADSVKGRFTISRDNAKNTVYLQMNSLKPEDTAVYYCAADKSKYRAFDYWGQGTQVTVSS”, for which the “polyreactivity (PSR sort gate)” value is on record as “high polyreactivity”.

For the sequence “QVQLVESGVGLVQAGGSLRLSCAASGSIFFKYAMGWYRQAPGKERELVAGITSTGRTYYADSVKGRFTISRDNAKNTVYLQMNSLKPEDTAVYYCNARTLPTYYRRYDYWGQGTQVTVSS”, the “polyreactivity (PSR sort gate)” value is reported as “high polyreactivity”.

For “QVQLVESGGGLVQAGGSLRLSCSASGSIFGSYAMGGYRQEPGNERELVAAISWRGGNTYYADSVKGRFTISRDNAKNTVYLQMNSLSPEDTAVYYCAAVAYSYGSYRRYYYWGLGTQVTVSS”, the “polyreactivity (PSR sort gate)” value is “high polyreactivity”.

Consider “QVQLVESGGGLVQAGGSLRLSCAASGIIVYYYAMGWYRPAPGKERELVAAISTSGTRTFYADSVKGRFTISRDNAKKTVYLQMNSLKPEDTAVYYCAARIYKPQRCTSLYRTSGYWGQGTQVTVSS”, for which the “polyreactivity (PSR sort gate)” value is given as “high polyreactivity”.

Regarding “QVQLVESGGGLVQAGGSLRLSCAASGRTSSVYARGWSRQAPGKEREWVAAITSSGGSTYYADSVKGRFTISRDNAKNTVYLQMNSLNPEDTAVYYCAAETYPVWGVAFYYWGQGTQVTVSS”, the “polyreactivity (PSR sort gate)” value is listed as “high polyreactivity”.

On to “QVQLVESGGGLVQAGGSLRLSCAASGRIFKSYVMGWYRQAPGKERELVAAISKRGGRTYYADSVKGRFTISRDNAKNTVYLQMNSLKPEDTAVYYCNATYPVGDFDYWGQGTQVTVSS”, for which the “polyreactivity (PSR sort gate)” value was “high polyreactivity”.

Consider “QVQLVESGGGLVQAGGSLRLSCAASGSIFYYNAMGWYRQAPGKERELVAAISWSGGSTYYADSVKGRFTISRDKAKNTVYLQMNSLKPEDTAVYYCNAVGWYTYFYGSRKYNSWGQGTQVTVSS”, for which the “polyreactivity (PSR sort gate)” value is “low polyreactivity”.

Take “QVQLVESGGGLVQAGGSLRLSCAASGRTFKGYAMGWYRQAPGKERELVAAITGSVGSTYYADSVKGRFTISRDNAKNTVYLQMNSLKPEDTAVYYCAKRWKATRARYDYWGQGTQVTVSS”: the “polyreactivity (PSR sort gate)” value is recorded as “high polyreactivity”.

On to “QVQLVESGGGLVQAGGSLRLSCAASGRIFGGYTMGWYRQAPGKERELVASINSGGSTAYADSVKGRFTISRDNAKNTVYLQMNSLKPEDTAVYYCAKRYAQTYSVSRYYYWGQGTQVTVSS”, for which the “polyreactivity (PSR sort gate)” value was “high polyreactivity”.

For the sequence “QVQLVESGGGLVQAGGSLRLSCAASGRTFSVNAMGWYRQAPGKERELVAAISSGGGTNYADSVKGRFTISRDNAKNNVYLQMNSLKPEDTAVYYCAARTFGYPSHRKEMEYWGQGTQVTVSS”, the “polyreactivity (PSR sort gate)” value is on record as “low polyreactivity”.

Take “QVQLVESGGGLVQAGGSLRLSCAASGFTFTWYAMGWYRPAPGKERELVAAISSGGGRTYYADSVKGRFTISRDNAKNTVYLQMNSLKPEDTAVYYCNKVSSFGYYYWGQGTQVTVSS”: the “polyreactivity (PSR sort gate)” value is “high polyreactivity”.

As to “QVQIVESGGGLVQARGSLRLSCAASGFIFGSYASGWYRQAPGKERELVAAISWNGDSTYYADSVKGRFTISRDNAKITVYLQMNSLKPEDTAVYYCNAVDVFLYQTDGLGDYWGQGTQVTVSS”, the “polyreactivity (PSR sort gate)” value is “low polyreactivity”.

On to “QVQLVESGGGLVQAGGSLRLSCAASGRIFFIYAMGWYRPAPGKERELVAAISSSGGTTYYADSVKGRFTISRDNAKNTVYLQMNSLKPEDTAVYYCAARSAATHWTFLFYYDFDYWGQGSQVTVSS”, for which the “polyreactivity (PSR sort gate)” value is “low polyreactivity”.

For “QVQLVESGGGLVQAGGSLRLSCAASGRTFKPYAMGWYRQAPGKERELVAAISSGVSTHYADSVKGRFTISRDNAKNTVYLQMNSLKPEDTAVYYCAADRSSQFDLDYWGQGTRVTVSS”, the “polyreactivity (PSR sort gate)” value is recorded as “low polyreactivity”.

With “QVQLVESGGGLVQAGGTLRLSCAASGSTISYYTMGWYRQAPGKERELVAAISRSGTRTYYADSVKGRFTISRDNPKNTVYLQMNSLKPEDTAFFYCAARSPFYSYTPGYEYWGQGTQVTVSS”, the “polyreactivity (PSR sort gate)” value was “high polyreactivity”.

As to “QVQLVESGGGLVQAGGSLRLSCAASGSTFRFYAMGWYRQAPGKEREFVAAISTSGGSTYYADSVKGRFTISRDNAKNTVYLQMISLKPEETAVYYCATRRRIRSSFYYDNDYWGLGTQVTVSS”, the “polyreactivity (PSR sort gate)” value was “high polyreactivity”.

With “QVQLVESGGGLVQAGGSLRLSCAASGSTFASNVMGWYRQAPGKERELVAAISRSGGNTYYADSVKGRFTISRDNAKNSVYLQMNSLKPEDTAVYYCAKYPFTRISYDYWGQGTQVTVSS”, the “polyreactivity (PSR sort gate)” value is listed as “high polyreactivity”.

As to “QVQLVESGGGLVQAGGSLRLSCAASGFICRGNAMGLYRQAPGKERELVASISRTGDTTYYADSVKGRFTISRDNAKNTVYLQMNSLTPEDTAVYYCARRSRVGYPLDSWGQATQVTVSS”, the “polyreactivity (PSR sort gate)” value was “high polyreactivity”.

In the case of “QVQLVESGGGLVQAGGSLRLSCAASGSTFGYNAMGWYRQAPGKERELVAAISWRGGNTYYADSVKGRFTISRDNAKNTVYLQMNSLKPEDTAVYYCNKVWPRYYVHGGSRVPEYDYWGQGTQVTVSS”, the “polyreactivity (PSR sort gate)” value is given as “high polyreactivity”.

Consider “QVQLVESGGGLVQAGGSLRLSCAASGYIFAYYAMGWYRQEPGKERELVADIRGRGGSTYYADSVKGRFTISRDNAKNTVYLQMNSLKTEDTAVYYCARRSPNPYSIYYYWGQGTQVTVSS”, for which the “polyreactivity (PSR sort gate)” value was “high polyreactivity”.

As to “QVQLVESGGGLVQAGGSLRLSCAASGFTFKYYAMGWYRQAPGKERELVADITRSGGSTYYADSVKGRFTISRDTAKITVYLQMNSLKPEDTAVYYCAVDPVRYPYSYDYWGQGTQVTVSS”, the “polyreactivity (PSR sort gate)” value was “high polyreactivity”.

In the case of “QVQLVESGGGLVQAGGSLRLSCAASGFTFYSYAMGWYRQAPGKERELVASISQSGGRTYYADSVKGRFTISRDNAKNTVYLQMNSLKPEDTAVYYCARQRSYGRSSYSYGYDYWGQGTKVTVSS”, the “polyreactivity (PSR sort gate)” value is given as “high polyreactivity”.

Turning to “QVQLVESGGGLVQAGGSLRLSCAASGFTFVEYAMGWYRQAPGKERELVASIRRSGGRTYYADSVKGRFTISRDNAKNTVYLQMNSLKPEDTAVYYCAKSVPRYYSKSGLAYEFDYWGQGTQVTVSS”, the “polyreactivity (PSR sort gate)” value was “low polyreactivity”.

As to “QVQLVESGGGLVQAGGSLRLSCAASGRTFSRYAMGWYRPAPGKERELVAAISSSGGSTYYADSVKGRFTISRDHAKNTVYLQMNSLKPEDTAVYYCAKYFIRDNRYDYWGQGTQVTVSS”, the “polyreactivity (PSR sort gate)” value is listed as “high polyreactivity”.

For the sequence “QVQLVESGGGLVQAGGSLRLSCAASGSTFRYNAMGWYRQAPGKVRELVAAIDKRGDSTYADSVKGRFTISRDNAKNTVYLQMNSLKPEDTAVYYCAADSDSKYNYGFLWDTYEYWGQGTQVTVSS”, the “polyreactivity (PSR sort gate)” value was “low polyreactivity”.

As for “QVQLVESGGGLVQAGGSLRLSCAASGSILYVYAMGWYRQAPGKEWELVAVITSGGSTNYADSVKGRFTISRDNAKNTVYLQMNSLKPEDTAVYYCAADPYSVYGGDYWGQGTQVTVSS”, the “polyreactivity (PSR sort gate)” value is reported as “low polyreactivity”.

As for “QVQLVESGGVLVQAGGSLRLSCAASGSIFGYNVMGRYRQAPGKERELVAAITYSGGSTYYADSVKGRFTISRDNAKNTVYLQMNSLKPEDTAVYYCAKVTGRRFPAYGYDHWGQGTQLTVSS”, the “polyreactivity (PSR sort gate)” value is given as “high polyreactivity”.

On to “QVQLVESGGGLVQAGGSLRLSCAASGSTFNDYVMGWYRQAPGKERELVAAISRSGGSTYYADSVKGRFTISRDNAKNTVYLQMNSLNPEDTAVYYCAAASPGPWRYDYWGQGTQVTVSS”, for which the “polyreactivity (PSR sort gate)” value is “high polyreactivity”.

As for “QVQLVESGGGLVQAGGSLRLSCAASGSTFYPYAMGWYRQAPGKERELVADITNSGSTYYADSVKGRFTISRDNAKNTVYLQMNCLKPEDTAVYYCSASVYSVADYYYWGQGTQVTVSS”, the “polyreactivity (PSR sort gate)” value is listed as “low polyreactivity”.

With “QVQLVESGGVLVQAGGTLRFSCAPSGLTFVYYTMRWYRQAPGQEREFVAGIDWSGGSTYYADSVKGRFTISRDNAKNTVYLHMNSLKPEDTAVYYCAAAVYYQYCVYRHDYWGKGTQVTVSS”, the “polyreactivity (PSR sort gate)” value was “low polyreactivity”.

Turning to “QVQLVESGGGLVQAGGRLGLSCAACGFICDGYAMGWYRQAPGKDRELVAAITGSGGSPYYADSVKGRFTISRDNAKNTVYLQMNSLKPEDTAVYYCNTDYYSVRSGSYWHFPGGDYWGQGTQVTVSS”, the “polyreactivity (PSR sort gate)” value is given as “low polyreactivity”.

For “QVHLVDSAGGLVQAGGSLRLSCAASGNIFDYNGMGWYRQAPGKERELVAGINWSGGSTYYADSVKGRFTISRDNAKNTVYLQMNSLTPEDTAVYYCAAECVYDWYPFWRAIYTYDYWGQGTQVTVSS”, the “polyreactivity (PSR sort gate)” value is “low polyreactivity”.
